Consider four molecules from patent US20230037911A1 (SHANGHAI HENLIUS BIOTECH, published 2023).

For experiment [1], the target named is T1, human TIGIT stably expressed on cells (Jurkat; 293T) (human, UniProt Q495A1 22-244).
T1 construct: the expression vector's insert is not described further; also called h-TIGIT; human TIGIT transfected Jurkat cells
T1 sequence: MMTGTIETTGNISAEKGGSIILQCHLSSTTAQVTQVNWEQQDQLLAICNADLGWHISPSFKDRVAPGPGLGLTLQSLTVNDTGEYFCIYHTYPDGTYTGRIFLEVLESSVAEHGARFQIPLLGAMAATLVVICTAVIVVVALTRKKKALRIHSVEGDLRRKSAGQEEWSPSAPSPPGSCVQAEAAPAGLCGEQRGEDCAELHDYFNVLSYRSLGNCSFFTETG
Kind of experiment: flow cytometry, whole cell binding on h-TIGIT transfected Jurkat cells; anti-human IgG Fc AlexaFluor488 secondary. The method, then:
The binding affinities of the humanized bivalent antibodies to human TIGIT were determined by whole cell binding to h-TIGIT stably expressed on Jurkat cells. Briefly, antibodies were incubated with h-TIGIT transfected Jurkat cells (0.2×10⁶/well in 100 μl) for 30 min in FACS buffer. The cells were washed once, then incubated with anti-human IgG Fc AlexaFluor488 (1:500).

Experiment [2] concerns the target T1, human TIGIT stably expressed on cells …. Kind of experiment: flow cytometry, whole cell binding on Jurkat cells stably expressing human TIGIT; Alexa Fluor 488 anti-human IgG Fc secondary. The text has this: FIGS. 1A-1C depict whole cell binding of representative VHH bivalent antibodies to human TIGIT determined by flowcytometry assays. […] Y axis represents Mean Fluorescence Intensity of AlexaFlour 488. X axis represents antibody concentrations in nanomolar. […] FIG. 1C is a schematic of the structure of a TIGIT VHH bivalent antibody.
Jurkat cells stably expressing human TIGIT and NFAT reporter gene were established. Specifically, Jurkat cells were transfected with human TIGIT expression vector by electroporation, and cells stably expressing human TIGIT were selected by 1 μg/ml puromycin during cell culture. Representative antibody clones were incubated at different concentrations with h-TIGIT stably expressing Jurkat cells (0.2×10⁶/ml) in 100 μl/well in 96-well plate in FACS buffer (PBS with 1.5% FBS) for 30 min. After washing, Alexaflour 488 conjugated anti-human IgG Fc secondary antibody (Alexa Fluor® 488 AffiniPure Goat Anti-Human IgG, Fcγ fragment specific, Jackson labs, 1:500 dilution) was added and incubated for 30 min. After washing, mean fluorescence intensity was measured using CytoFlex (Beckman Coulter) by gating live cell population. Binding affinity was calculated using GraphPad Prism.

Experiment [3] has the same target. Kind of experiment: cell-based or functional assay.
Experiment [4] addresses T2, recombinant ECD of human FcγRIIB (human, UniProt P31994 43-217).
T2 construct: extracellular domain
T2 sequence (looked up): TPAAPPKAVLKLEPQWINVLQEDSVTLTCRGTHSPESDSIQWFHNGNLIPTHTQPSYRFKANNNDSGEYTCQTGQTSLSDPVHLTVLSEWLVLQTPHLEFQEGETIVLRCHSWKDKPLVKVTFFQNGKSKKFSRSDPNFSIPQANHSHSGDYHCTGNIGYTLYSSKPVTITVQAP
Briefly: Octet (ForteBio) biolayer interferometry; sensor loaded with recombinant ECD of human FcγRIIB; antibody at 5 concentrations (not given). An excerpt: (§1) Y axis represents association, dissociation & Rmax. X axis represents time in second.

Experiment [5] addresses T3, recombinant ECD of mouse FcγRIV (mouse, UniProt A0A0B4J1G0 21-203).
T3 sequence: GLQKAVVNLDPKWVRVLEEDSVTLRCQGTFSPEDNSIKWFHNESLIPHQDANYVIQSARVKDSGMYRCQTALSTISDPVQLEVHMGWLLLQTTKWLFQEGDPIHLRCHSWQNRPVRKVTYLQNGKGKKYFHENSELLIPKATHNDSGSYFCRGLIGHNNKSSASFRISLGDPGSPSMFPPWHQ
Kind of experiment: Octet (ForteBio) biolayer interferometry; sensor loaded with recombinant ECD of mouse FcγRIV; antibody at 5 concentrations (not given).
Excerpt: as §1
(Biolayer interferometry detects binding as a change in optical thickness at a sensor tip.)

For experiment [6], the target named is T4, recombinant ECD of human FcγRIIIA (human, UniProt P08637 17-208).
T4 construct: extracellular domain
Kind of experiment: Octet (ForteBio) biolayer interferometry; sensor loaded with recombinant ECD of human FcγRIIIA; antibody at 5 concentrations (not given).
Excerpt: as §1

Experiment [7] deals with T1, human TIGIT stably expressed on cells …. Kind of experiment: cell-based or functional assay. This is another data set of the same source.
Experiment [8] deals with human FcγRIIIA on NFAT reporter Jurkat cells (human, UniProt P08637 17-254). Briefly: cell-based or functional assay.
human FcγRIIIA on NFAT reporter Jurkat cells, sequence (P08637 17-254): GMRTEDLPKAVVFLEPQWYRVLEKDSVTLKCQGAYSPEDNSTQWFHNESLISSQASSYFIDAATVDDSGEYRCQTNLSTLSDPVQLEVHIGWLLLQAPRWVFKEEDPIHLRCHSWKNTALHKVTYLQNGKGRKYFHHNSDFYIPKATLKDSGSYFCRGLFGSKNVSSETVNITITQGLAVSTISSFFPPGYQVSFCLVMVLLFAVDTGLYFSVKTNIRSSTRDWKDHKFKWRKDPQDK

T4 sequence (P08637 17-208): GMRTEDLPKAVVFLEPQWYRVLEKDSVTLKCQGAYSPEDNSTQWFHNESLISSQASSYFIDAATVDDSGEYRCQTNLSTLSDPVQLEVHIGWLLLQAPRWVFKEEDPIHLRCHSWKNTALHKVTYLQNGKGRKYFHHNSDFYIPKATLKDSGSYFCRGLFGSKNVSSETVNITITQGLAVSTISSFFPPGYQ

B1: 1G1-chimeric (llama VHH of 1G1 with human IgG1 CH2 and CH3 domains), bivalent (Fc fusion)
chain: QVQLVESGGGLVQAGDSLRLSCVASGPSFSSYPMGWFRQGPGKERESVAAISSDGRFTYYAASVKGRFTISKDNAKSAAFLQMNSLKPEDTAVYYCAARDSGSGYYSRAQWYDYWGQGTLVTVSS
notes: also called 1G1 chimeric clone; not shown: human IgG1 CH2 and CH3 domains
For B1, the “EC50 (read off the curve)” value in experiment [1] is ~0.08 nM; in experiment [2], ~0.1 nM. The “EC50 (read off the curve); NFAT luciferase reporter (RLU), h-TIGIT/NFAT Jurkat cells with PVR Raji cells and SEE” value in experiment [3] was ~1 nM.

B2: 1C12-chimeric (llama VHH of 1C12 with human IgG1 CH2 and CH3 domains), bivalent (Fc fusion)
chain: QVQLVESGGGLVQTGDSLRLSCAASSRIFSRYGMGWFRQAPGKEREFVAAISWNGASTTYTDSVKGRFTISRDSAENTTYLQINSLRPEDTAVYYCAADPWGAVKLGTAEYEYWGQGTQVTVSS
notes: also called 1C12 chimeric parental clone; not shown: human IgG1 CH2 and CH3 domains
For the molecule B2, the “EC50 (read off the curve)” value in experiment [1] was ~0.03 nM; in experiment [2], ~0.04 nM. Besides, the “EC50 (read off the curve); NFAT luciferase reporter (RLU), h-TIGIT/NFAT Jurkat cells with PVR Raji cells and SEE” value in experiment [3] is ~0.8 nM.

B3: 2A3-LT-Fc VLPLL (Fc mutations L235V, F243L, R292P, Y300L and P396L) (Fc fusion)
chain: QVQLVESGGGVVQPGRSLRLSCAASGGSFSSYPMGWFRQAPGKERESVAAISSDLRFTYYADSVKGRFTISRDNSKNTLYLQMNSLRAEDTAVYYCAARTSGVGYYSRAQWYDYWGQGTLVTVSSEPKSCDKTHTCPPCPAPELVGGPSVFLLPPKPKDTLMISRTPEVTCVVVDVSHEDPEVKFNWYVDGVEVHNAKTKPPEEQYNSTLRVVSVLTVLHQDWLNGKEYKCKVSNKALPAPIEKTISKAKGQPREPQVYTLPPSREEMTKNQVSLTCLVKGFYPSDIAVEWESNGQPENNYKTTPLVLDSDGSFFLYSKLTVDKSRWQQGNVFSCSVMHEALHNHYTQKSLSLSPGK
notes: also called VLPLL mutant; VPVLL (as printed once)
Turning to B3, the binding result in experiment [4], in experiment [5] and in experiment [6] was “binds” each time.

B4: 2A3-LT-Fc-DLE (Fc mutations S239D, A330L and I332E) (Fc fusion)
chain: QVQLVESGGGVVQPGRSLRLSCAASGGSFSSYPMGWFRQAPGKERESVAAISSDLRFTYYADSVKGRFTISRDNSKNTLYLQMNSLRAEDTAVYYCAARTSGVGYYSRAQWYDYWGQGTLVTVSSEPKSCDKTHTCPPCPAPELLGGPDVFLFPPKPKDTLMISRTPEVTCVVVDVSHEDPEVKFNWYVDGVEVHNAKTKPREEQYNSTYRVVSVLTVLHQDWLNGKEYKCKVSNKALPLPEEKTISKAKGQPREPQVYTLPPSREEMTKNQVSLTCLVKGFYPSDIAVEWESNGQPENNYKTTPPVLDSDGSFFLYSKLTVDKSRWQQGNVFSCSVMHEALHNHYTQKSLSLSPGK
notes: also called DLE mutant
For B4, the binding result in experiment [4] is on record as “binds”. For the same molecule, the binding result in experiment [5] is “binds”. In experiment [7], the “EC50 (nM), TIGIT blockade NFAT luciferase reporter assay, Average” value was 0.97 nM; the “EC50 (nM), TIGIT blockade NFAT luciferase reporter assay, Exp 1” value amounted to 0.67 nM; the “EC50 (nM), TIGIT blockade NFAT luciferase reporter assay, Exp 2” value stood at 0.92 nM; the “EC50 (nM), TIGIT blockade NFAT luciferase reporter assay, Exp 3” value was determined as 1.32 nM. For the same molecule, in experiment [8], the “EC50 (nM), FcγRIIIA-mediated NFAT luciferase reporter activity, Average” value came out at 0.024 nM; the “EC50 (nM), FcγRIIIA-mediated NFAT luciferase reporter activity, Exp 1” value was determined as 0.027 nM; the “EC50 (nM), FcγRIIIA-mediated NFAT luciferase reporter activity, Exp 2” value came to 0.0295 nM; the “EC50 (nM), FcγRIIIA-mediated NFAT luciferase reporter activity, Exp 3” value came out at 0.018 nM. In addition, the “EC50 (nM), FcγRIIIA-mediated NFAT luciferase reporter activity, Exp 4” value in experiment [8] is 0.02 nM.

One may read the EC50 (read off the curve) as the concentration needed to bring the measured effect to its halfway point.
